{
  "source": "paper PMC6297170",
  "target": "lysine decarboxylase CadA from Vibrio vulnificus (Vibrio vulnificus)",
  "test": "SEC; Sephacryl S-300 HR column on FPLC, 0.5 mL/min, 50 mM MES/100 mM NaCl pH 6.5; standards IgM 970 kDa, thyroglobulin 669 kDa, ferritin 440 kDa, catalase 232 kDa, aldolase 140 kDa; self-association of the purified enzyme",
  "data": [
    {"substance": "lysine decarboxylase CadA from Vibrio vulnificus (from UniProt A0A3Q0L4X5 1-797) (enzyme)", "values": [
      {"measurement": "stoichiometry N", "result": 10}
    ]}
  ]
}
